Results: patent publication US20040138118
Positions count from the first letter of the chain named.

T1: 20-mer D to A mutant peptide (SEQ ID NO:20)
T1 chain: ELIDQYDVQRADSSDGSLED

T2: 20-mer R to Q mutant peptide (SEQ ID NO:19)
T2 chain: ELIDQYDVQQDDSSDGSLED

T3: 20-mer wild type myostatin pro peptide peptide (SEQ ID NO:18)
T3 chain: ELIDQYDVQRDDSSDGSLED

T4: 30-mer D to A mutant peptide (SEQ ID NO:17)
T4 chain: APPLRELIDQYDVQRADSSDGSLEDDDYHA

T5: 30-mer R to Q mutant peptide (SEQ ID NO:16)
T5 chain: T4 chain with R15Q, A16D

T6: 30-mer wild type myostatin pro peptide peptide (SEQ ID NO:15)
T6 chain: T4 chain with A16D

T7: 40-mer D to A mutant peptide (SEQ ID NO:14)
T7 chain: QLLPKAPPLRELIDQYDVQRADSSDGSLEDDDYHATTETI

T8: 40-mer R to Q mutant peptide (SEQ ID NO:13)
T8 chain: T7 chain with R20Q, A21D

T9: 40-mer wild type myostatin pro peptide peptide (SEQ ID NO:12)
T9 chain: T7 chain with A21D

B1: mammalian Tolloid-like-2 (mTLL-2) (protein)
chain: ATTSRTERIWPGGVIPYVIGGNFTGSQRAIFKQAMRHWEKHTCVTFIERTDEESFIVFSYRTCGCCSYVGRRGGGPQAISIGKNCDKFGIVAHELGHVVGFWHEHTRPDRDQHVTIIRENIQPGQEYNFLKMEAGEVSSLGETYDFDSIMHYARNTFSRGVFLDTILPRQDDNGVRPTIGQRVRLSQGDIAQARKLYKCPACGETLQDTTGNFSAPGFPNGYPSYSHCVWRISVTPGEKIVLNFTSMDLFKSRLCWYDYVEVRDGYWRKAPLLGRFCGDKIPEPLVSTDSRLWVEFRSSSNILGKGFFAAYEATCGGDMNKDAGQIQSPNYPDDYRPSKECVWRITVSEGFHVGLTFQAFEIERHDSCAYDYLEVRDGPTEESALIGHFCGYEKPEDVKSSSNRLWMKFVSDGSINKAGFAANFFKEVDECSWPDHGGCEHRCVNTLGSYKCACDPGYELAADKKMCEVACGGFITKLNGTITSPGWPKEYPTNKNCVWQVVAPAQYRISLQFEVFELEGNDVCKYDFVEVRSGLSPDAKLHGRFCGSETPEVITSQSNNMRVEFKSDNTVSKRGFRAHFFSDKDECAKDNGGCQHECVNTFGSYLCRCRNGYWLHENGHDCKEAGCAHKISSVEGTLASPNWPDKYPSRRECTWNISSTAGHRVKLTFNEFEIEQHQECAYDHLEMYDGPDSLAPILGRFCGSKKPDPTVASGSSMFLRFYSDASVQRKGFQAVHSTECGGRLKAEVQTKELYSHAQFGDNNYPSEARCDWVIVAEDGYGVELTFRTFEVEEEADCGYDYMEAYDGYDSSAPRLGRFCGSGPLEEIYSAGDSLMIRFRTDDTINKKGFHARYTSTKFQDALHMKK
B2: mammalian Tolloid-like-1 (mTLL-1) (protein)
chain: AATSRTERIWPGGVIPYVIGGNFTGSQRAMFKQAMRHWEKHTCVTFIERSDEESYIVFTYRPCGCCSYVGRRGNGPQAISIGKNCDKFGIVVHELGHVIGFWHEHTRPDRDNHVTIIRENIQPGQEYNFLKMEPGEVNSLGERYDFDSIMHYARNTFSRGMFLDTILPSRDDNGIRPAIGQRTRLSKGDIAQARKLYRCPACGETLQESNGNLSSPGFPNGYPSYTHCIWRVSVTPGEKIVLNFTTMDLYKSSLCWYDYIEVRDGYWRKSPLLGRFCGDKLPEVLTSTDSRMWIEFRSSSNWVGKGFAAVYEAICGGEIRKNEGQIQSPNYPDDYRPMKECVWKITVSESYHVGLTFQSFEIERHDNCAYDYLEVRDGTSENSPLIGRFCGYDKPEDIRSTSNTLWMKFVSDGTVNKAGFAANFFKEEDECAKPDRGGCEQRCLNTLGSYQCACEPGYELGPDRRSCEAACGGLLTKLNGTITTPGWPKEYPPNKNCVWQVVAPTQYRISVKFEFFELEGNEVCKYDYVEIWSGLSSESKLHGKFCGAEVPEVITSQFNNMRIEFKSDNTVSKKGFKAHFFSDKDECSKDNGGCQHECVNTMGSYMCQCRNGFVLHDNKHDCKEAECEQKIHSPSGLITSPNWPDKYPSRKECTWEISATPGHRIKLAFSEFEIEQHQECAYDHLEVFDGETEKSPILGRLCGNKIPDPLVATGNKMFVRFVSDASVQRKGFQATHSTECGGRLKAESKPRDLYSHAQFGDNNYPGQVDCEWLLVSERGSRLELSFQTFEVEEEADCGYDYVELFDGLDSTAVGLGRFCGSGPPEEIYSIGDSVLIHFHTDDTINKKGFHIRYKSIRYPDTTHTKK
B3: bone morphogenic protein-1 (BMP-1) (protein)
chain: AATSRPERVWPDGVIPFVIGGNFTGSQRAVFRQAMRHWEKHTCVTFLERTDEDSYIVFTYRPCGCCSYVGRRGGGPQAISIGKNCDKFGIVVHELGHVVGFWHEHTRPDRDRHVSIVRENIQPGQEYNFLKMEPQEVESLGETYDFDSIMHYARNTFSRGIFLDTIVPKYEVNGVKPPIGQRTRLSKGDIAQARKLYKCPACGETLQDSTGNFSSPEYPNGYSAHMHCVWRISVTPGEKIILNFTSLDLYRSRLCWYDYVEVRDGFWRKAPLRGRFCGSKLPEPIVSTDSRLWVEFRSSSNWVGKGFFAVYEAICGGDVKKDYGHIQSPNYPDDYRPSKVCIWRIQVSEGFHVGLTFQSFEIERHDSCAYDYLEVRDGHSESSTLIGRYCGYEKPDDIKSTSSRLWLKFVSDGSINKAGFAVNFFKEVDECSRPNRGGCEQRCLNTLGSYKCSCDPGYELAPDKRRCEAACGGFLTKLNGSITSPGWPKEYPPNKNCIWQLVAPTQYRISLQFDFFETEGNDVCKYDFVEVRSGLTADSKLHGKFCGSEKPEVITSQYNNMRVEFKSDNTVSKKGFKAHFFSEKRPALQPPRGRPHQLKFRVQKRNRTPQ

How the values were obtained:
[1] = molecular target: T1, 20-mer D to A mutant peptide (SEQ ID …)
[2] = molecular target: T2, 20-mer R to Q mutant peptide (SEQ ID …)
[3] = molecular target: T3, 20-mer wild type myostatin pro peptide …
[4] = molecular target: T4, 30-mer D to A mutant peptide (SEQ ID …)
[5] = molecular target: T5, 30-mer R to Q mutant peptide (SEQ ID …)
[6] = molecular target: T6, 30-mer wild type myostatin pro peptide …
[7] = molecular target: T7, 40-mer D to A mutant peptide (SEQ ID …)
[8] = molecular target: T8, 40-mer R to Q mutant peptide (SEQ ID …)
[9] = molecular target: T9, 40-mer wild type myostatin pro peptide …
[10] = molecular target: D76A mutant myostatin pro peptide
[11] = molecular target: myostatin pro peptide (wild type)

Sequence of D76A mutant myostatin pro peptide (chain, as listed by the source D76A): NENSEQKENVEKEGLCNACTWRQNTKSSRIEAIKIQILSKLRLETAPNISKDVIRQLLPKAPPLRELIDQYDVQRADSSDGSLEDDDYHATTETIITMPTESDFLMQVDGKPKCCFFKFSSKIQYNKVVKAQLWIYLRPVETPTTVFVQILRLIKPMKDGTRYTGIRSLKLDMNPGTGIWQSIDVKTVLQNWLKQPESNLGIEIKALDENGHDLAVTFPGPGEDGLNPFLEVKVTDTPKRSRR

Protein	peptide cleavage, HPLC and mass spectrometry [1]	peptide cleavage, HPLC and mass spectrometry [2]	peptide cleavage, HPLC and mass spectrometry [3]	peptide cleavage, HPLC and mass spectrometry [4]	peptide cleavage, HPLC and mass spectrometry [5]	peptide cleavage, HPLC and mass spectrometry [6]	peptide cleavage, HPLC and mass spectrometry [7]	peptide cleavage, HPLC and mass spectrometry [8]	peptide cleavage, HPLC and mass spectrometry [9]	proteolytic cleavage of the mutant pro peptide in the latent complex, western blot (FIGS. 3D and E) [10]	partial proteolytic cleavage of the pro peptide in the latent complex, western blot (FIG. 3E) [11]	proteolytic cleavage of free pro peptide [11]	proteolytic cleavage, SDS-PAGE and western blot with anti-pro peptide antiserum [11]	proteolytic cleavage of the pro peptide in the latent complex, western blot (FIG. 3D) [11]
B1	the peptides containing the D→A mutation at the P1′ position were not cleaved	The 40-mer, 30-mer, and 20-mer wild type and R→Q mutant peptides were cleaved by conditioned media containing TLL-2	The 40-mer, 30-mer, and 20-mer wild type and R→Q mutant peptides were cleaved by conditioned media containing TLL-2	the peptides containing the D→A mutation at the P1′ position were not cleaved	The 40-mer, 30-mer, and 20-mer wild type and R→Q mutant peptides were cleaved by conditioned media containing TLL-2	The 40-mer, 30-mer, and 20-mer wild type and R→Q mutant peptides were cleaved by conditioned media containing TLL-2	the peptides containing the D→A mutation at the P1′ position were not cleaved	The 40-mer, 30-mer, and 20-mer wild type and R→Q mutant peptides were cleaved by conditioned media containing TLL-2	The 40-mer, 30-mer, and 20-mer wild type and R→Q mutant peptides were cleaved by conditioned media containing TLL-2	completely resistant to proteolysis by each of the four proteinases	BMP-1, mTLL-1, and mTLL-2, were approximately equally effective in cleaving the pro peptide	All four of these proteinases also cleaved pro peptide that had been purified away from the C-terminal dimer	A discrete proteolytic cleavage product of the pro peptide was detected in each reaction containing one of the four proteases	
B2										completely resistant to proteolysis by each of the four proteinases	BMP-1, mTLL-1, and mTLL-2, were approximately equally effective in cleaving the pro peptide	All four of these proteinases also cleaved pro peptide that had been purified away from the C-terminal dimer	A discrete proteolytic cleavage product of the pro peptide was detected in each reaction containing one of the four proteases	
B3										completely resistant to proteolysis by each of the four proteinases	BMP-1, mTLL-1, and mTLL-2, were approximately equally effective in cleaving the pro peptide	All four of these proteinases also cleaved pro peptide that had been purified away from the C-terminal dimer	A discrete proteolytic cleavage product of the pro peptide was detected in each reaction containing one of the four proteases	incubation of the purified latent complex with purified BMP-1 resulted in complete cleavage of the pro peptide to generate a single product
